Data from US20090246205A1 (Eli Lilly, published 2009).
Each block holds one binder with its values, some of them ahead of it.

Legend:
[1] = biological target: T1, Recombinant RON-Fc (human, UniProt Q04912 25-571); test: BIAcore 3000 SPR, RON-Fc immobilized, Fab or antibody injected
T1 construct: also called recombinant human RON receptor; MSP-R; not shown: Fc part of the bought RON-Fc (Sigma-Aldrich)
T1 sequence (looked up): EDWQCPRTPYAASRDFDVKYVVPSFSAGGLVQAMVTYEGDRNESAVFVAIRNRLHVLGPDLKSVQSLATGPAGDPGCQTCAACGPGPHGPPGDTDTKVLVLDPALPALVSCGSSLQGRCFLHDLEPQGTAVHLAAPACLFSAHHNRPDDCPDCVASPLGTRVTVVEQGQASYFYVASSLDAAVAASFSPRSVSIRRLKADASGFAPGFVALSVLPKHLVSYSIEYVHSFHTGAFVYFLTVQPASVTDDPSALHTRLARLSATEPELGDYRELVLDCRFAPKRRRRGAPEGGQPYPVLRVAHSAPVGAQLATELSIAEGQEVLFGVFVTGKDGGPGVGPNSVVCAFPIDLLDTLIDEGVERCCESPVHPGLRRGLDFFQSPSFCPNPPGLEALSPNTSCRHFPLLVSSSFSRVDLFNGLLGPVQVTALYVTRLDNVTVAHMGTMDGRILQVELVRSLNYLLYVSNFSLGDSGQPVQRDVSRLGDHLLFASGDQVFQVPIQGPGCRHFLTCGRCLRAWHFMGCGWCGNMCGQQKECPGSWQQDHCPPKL
Protocol: BIAcore-Analysis. The binding kinetics of soluble Fab and antibody proteins to RON was determined by using a BIACORE 3000 (BIAcore, Piscataway, N.J.). Recombinant RON-Fc was immobilized onto a sensor chip, and Fab or antibody was injected at various concentrations. Sensorgrams were obtained and evaluated using BIA Evaluation 2.0 software to determine rate constants. The affinity constant, KD, was calculated from the ratio of the rate constants Koff/Kₒₙ. The “Kon, M⁻¹.S⁻¹” and “Koff, S⁻¹” rates of the interaction were used to determine the affinity (Kd, M) of the antibody/receptor interaction. […] For IMC-41B12, they were: 1e-10, 1.7e6 and 1.7e-4.

[2] = biological target: T1, Recombinant RON-Fc; test: ELISA, recombinant human RON receptor immobilized on the plate
[3] = biological target: T1, Recombinant RON-Fc; test: ELISA, blocking of the MSP/RON interaction
Protocol: ELISA to Detect Fab Antibodies That Block the MSP/RON Interaction. Maxi-sorp 96-well microtiter plates (Nunc) were coated with (1 μg/ml×100 μl) MSP (R&D Systems) at RT for 1.5 hours. After washing the wells, they were blocked with 3% PBS/milk. Anti-RON phage antibodies that were converted to Fab or full IgG were pre-incubated with RON-Fc (25 ng/well) at RT for 1 hour. The Fab/RON-Fc or IgG/RON-Fc mixtures were then added to the MSP-coated wells and allowed to incubate for 1.5 h at RT.
ELISA for Determination of IC50 and ED50 The ability of the anti-RON antibodies, IMC-41A10 and IMC-41B12, to bind to recombinant human RON receptor and to block the MSP/RON interaction were measured using ELISA.

- Kd [1]: 1.5 nM
- koff [1]: 0.00013 s⁻¹
- kon [1]: 84000 M⁻¹ s⁻¹
- EC50 [2]: 0.15 nM
- IC50 [3]: 2 nM
B1: IMC-41A10 (antibody, V domains shown)
VH: EVQLVQSGGGLVKPGGSLRLSCAASGFTFSSYAMHWVRQAPGKGLEWVAVISYDGSNKYYADSVKGRFTISRDNSKNTLYLQMNSLRAEDTAVYYCARFSGWPNNYYYYGMDVWGQGTTVTVSS
VL: DVVMTQSPLSLPVTPGEPASISCRSSQSLLHSNGFNYVDWYLQKPGQSPHLLIYFGSYRASGVPDRFSGSGSGTDFTLKISRVEAEDVGVYYCMQALQTPPWTFGQGTKVEIR
notes: also called anti-RON IMC-41A10 antibody; IMC-14A10

- Kd [1]: 0.1 nM
- koff [1]: 0.00017 s⁻¹
- kon [1]: 1.7e+06 M⁻¹ s⁻¹
- EC50 [2]: 0.1 nM
- IC50 [3]: 2 nM
B2: IMC-41B12 (antibody, V domains shown)
VH: QVQLQESGPGLVKPSEILSLTCTVSGGSISSHYWSWVRQPPGKGLEWIGYIYYSGSTNYNPSLKSRVTISVDTSKNQFSLNLSSVTAADTAVYYCARIPNYYDRSGYYPGYWYFDLWGRGTLVTVSS
VL: QAVLTQPSSLSAPPGASASLTCTLRSGFNVDSYRISWYQQKPGSPPQYLLRYKSDSDKQQGSGVPSRFSGSKDASANAGILLISGLQSEDEADYYCMIWHSSAWVFGGGTKLTVLR
notes: also called IMC-14B12
